Results: PMC2654920, “Borrelia recurrentis Employs a Novel Multifunctional Surface Protein with Anti-Complement, Anti-Opsonic and Invasive Potential to Escape Innate Immunity” (PLoS ONE, 2009)

How the values were obtained:
[1] = molecular target: T1, human complement factor H (human, UniProt P08603 19-1231); assay: ELISA; competition inhibition assay: HcpA (2 µg/ml) coated; constant CFH (3 µg/ml in the methods, 2 µg/ml in the results) with PLG 0.001-100 µg/ml, or constant PLG (10 µg/ml) with CFH 0.001-100 µg/ml; details: both partners purified
T1 construct: complement factor H, human, 20 short consensus repeats (SCRs); purified protein or as present in normal human serum; purified human factor H of Calbiochem is the only one named; also called CFH; source: bought: Calbiochem (purified human factor H); also in normal human serum

recombinant CFHR-1 = molecular target: T2, recombinant CFHR-1 (human, UniProt Q03591 19-330); assay: far-Western, overlay or dot blot; ligand affinity blot: purified recombinant HcpA separated by SDS-PAGE, on nitrocellulose strips, incubated with recombinant CFHL-1, CFH deletion constructs or recombinant CFHR-1; anti-CFH immune serum, mAb JHD7 or JHD8; details: both partners purified
T2 construct: complement factor H-related protein 1, human, recombinant; also called CFH-related protein 1
T2 sequence: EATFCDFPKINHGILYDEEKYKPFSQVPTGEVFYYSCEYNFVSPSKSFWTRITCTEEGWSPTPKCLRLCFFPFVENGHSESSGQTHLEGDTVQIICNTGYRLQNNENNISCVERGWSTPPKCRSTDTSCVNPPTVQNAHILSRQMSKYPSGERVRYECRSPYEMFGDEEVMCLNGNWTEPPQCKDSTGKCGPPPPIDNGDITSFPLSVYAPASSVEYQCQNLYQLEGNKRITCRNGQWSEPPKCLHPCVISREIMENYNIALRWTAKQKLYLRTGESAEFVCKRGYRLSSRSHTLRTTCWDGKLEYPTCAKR

B1: recombinant full-length HcpA (residues 18 to 175) of B. recurrentis A1 (domain or fragment)
chain: LLSKNANLQPKTLETLESNIDDGQKQALAFFQESLQDNKHLDALKQAQSALLKDIKDKPQKTLNFKYNKTKLEQLFRKLGNDKTKQFLKNLHVTIKFINNGSFQSFSSANFNDLDTLEKKQERAINSIKEELYVNYYLYTNELVDLDYFFYRAMNYLS
notes: HcpA, surface lipoprotein of B. recurrentis A1, residues 18-175, lacking the hydrophobic leader peptide; cloned into pQE-30Xa with primers BrBam and BrSal; also called intact HcpA; source: E. coli JM109, purified as recommended by the manufacturer (Qiagen); not shown: His6, N-terminal, kept
Question: Does B1 bind [1]?
Answer: binds

Question: Does B1 bind (recombinant CFHR-1)?
Answer: binds
